# Data from article PMC6613789.
# B1: CLEAR EMSA probe (dsDNA)
# DNA 1: GTAGGTCACGTGACCGGG
# DNA 2: CCCGGTCACGTGACCTAC
# Biological target: apoE4 (UniProt P02649 19-317, C130R)
# Test: EMSA
# Chain of apoE4 (P02649 19-317 C130R): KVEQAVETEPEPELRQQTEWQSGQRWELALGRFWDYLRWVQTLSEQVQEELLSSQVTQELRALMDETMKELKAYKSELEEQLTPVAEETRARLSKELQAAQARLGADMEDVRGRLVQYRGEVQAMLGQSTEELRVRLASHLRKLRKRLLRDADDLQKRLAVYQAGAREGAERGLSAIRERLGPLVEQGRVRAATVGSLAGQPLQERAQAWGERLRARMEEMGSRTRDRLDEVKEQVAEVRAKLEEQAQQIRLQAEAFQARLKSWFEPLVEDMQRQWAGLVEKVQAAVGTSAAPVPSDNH
binder,measurement,value
B1,binding result,binds
